{"source": "the DeepSol protein solubility set", "data": [{"assay": "soluble on expression in E. coli; label from the status in PepcDB or PDB records", "values": [{"sequence": "GEPPTQKPKKIVNAKKDVVNTKMFEELKSRLDTLSQEVALLKEQQALQTVCLKGTKVHMKCFLAFTQTKTFHEASEDCISRGGTLSTPQTGSENDALYEYLRQSVGNEAEIWLGLNDMAAEGTWVDMTGARIAYKNWETEITAQPDGGKTENCAVLSGAANGKWFDKRCRDQLPYICQFGIV", "soluble on expression in E. coli": "soluble"}, {"sequence": "GETLDGEAALQAAIARLAAGDIVAIKGIGGFHLACDAGNPAAVATLRARKHRPAKPLAVMLPTATGLPAAAAALMGSPAAPIVLIAKAQVSGLCDEIAPGLAEVGVMLPSNPLQHLLLQGLARPIVMTSGNLSGRPPALSNAQALNELADIADGFLLHNRDIVQRMDDSLVRSSGEMLRRARGYVPDALPL", "soluble on expression in E. coli": "not soluble"}, {"sequence": "GFIELHAHLAFQKVPADIVLRHGVTTLRDVGGPVHPPYGGEGSLRVLTSGRIITAPHGYPIVTMGARDLAIPVASEAEAREAVRHLVGEGAVIIKIALEPGSEAGAPWSSHHDHAHHDAAHTASAVTHHHAHAASHDQSAWPMLPEPIVKAVVDEAHRHQRKVSAHVAEPSGVQVALNAGVDEWAHMPCNPIPEPLLKQARAQNVTIIGTLDTLSKCSGIAHNTMVWTELGGELLYGTEIAHPDIPWGIDAQELMYLMHLGKMKLLDALGAATAKAGRYLGIPMLGTIQPGAPADLIAIRGNPEQQLKRLEYPDLVISGGHIVVNHFSSLP", "soluble on expression in E. coli": "not soluble"}, {"sequence": "GFVNVTGMFRDRARTNRADGNQLILFDQSDFPNGVAPPSGFPFAYPQVAGIIGEEAAQNARRIDNQILNQRGLERSDFQFRVGQSAVQQRAVFLNSEVGLGNDATLYAFGGLSYKNGIGAPFRRLPFSTSAMPYRASNTDPALFPNGFQPEMNSDVVDQSLTIGVEGTIGGWTWDLSNSYGRNSLDYQMDNTVNASLLQASPTSIYAGGHAFSQNVTNLDVSRFFDDALAGINVAFGGAYRTDRYQIFSGEEASYRNYGRVQLIDDTSAASPRLVTRDTLGKEPGTQGFVGFRPENEVDRTRSNVAAYLDTEVNLTENLLVTAAGRYENYSDFGGTLNGRLAARWGLLDGRLNLRGSASTGFRAPSLHQIYFNEVRT", "soluble on expression in E. coli": "not soluble"}, {"sequence": "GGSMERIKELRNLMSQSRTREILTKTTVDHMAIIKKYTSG", "soluble on expression in E. coli": "soluble"}, {"sequence": "GHMYAIAEDTLPARVLKELLLYRRRYPEHRQSASEADEIRRIEQVQLPRIAAFIEAGEPIEFVLPAFPAKSPNPGKVLDSRPDMAERLSLSFLNHLCQRIQLFYAPGAKITVCSDGRVFGDLVRIGDAHISAYQDALRLMIEEIGATHIGVFNLEDVRAFEAQRDNHEQLRQLLIGGYAEPLESIRETLLASEEGLLLYRAITRFLYEDGLTPDYQGSKTALQRDAKERAYGVIQRSWAWGALLADQFPRAIRLSIHPQPADSLKFGIHMMPTRDDWLTPWHGVAVNTEDRFVLMKRSEVLELGGELVQINGQPSHYRLPARAARRAAVA", "soluble on expression in E. coli": "soluble"}, {"sequence": "GHMYEVDHADVYDLFYLGRGKDYAAEASDIADLVRSRTPEASSLLDVACGTGTHLEHFTKEFGDTAGLELSEDMLTHARKRLPDATLHQGDMRDFRLGRKFSAVVSMFSSVGYLKTTEELGAAVASFAEHLEPGGVVVVEPWWFPETFADGWVSADVVRRDGRTVARVSHSVREGNATRMEVHFTVADPGKGVRHFSDVHLITLFHQAEYEAAFTAAGLRVEYLEGGPSGRGLFVGVPA", "soluble on expression in E. coli": "soluble"}, {"sequence": "GIKDSPVNKVEPNDTLEKVFVSVTKYPDEKRLKGLSKQLDWSVRKIQCWFRHRRNQDKP", "soluble on expression in E. coli": "soluble"}, {"sequence": "GILELAGTVGCVGPRTPIAYMKYGCFCGLGGHGQPRDAIDWCCHGHDCCYTRAEEAGCSPKTERYSWQCVNQSVLCGPAENKCQELLCKCDQEIANCLAQTEYNLKYLFYPQFLCEPDSPKCD", "soluble on expression in E. coli": "soluble"}, {"sequence": "GKIILFEDVEFGGKKLELETSVSDLNVHGFNDIVSSIIVESGTWFVFDDEGFSGPSYKLTPGKYPNPGSWGGNDDELSSVKQQ", "soluble on expression in E. coli": "soluble"}, {"sequence": "GKRLYNVKQSALSIRQIDLQRRHIEQSIRMGIKNQNDRLRTCMQRFVASEEAVRSAEKGYQIAEKRYQTGEGTLVELNDADVALLQARLNYNQAIFDFMTAKAELDKMNGMGIPEQ", "soluble on expression in E. coli": "not soluble"}, {"sequence": "GLGRKPHTRILSFEKLEADKFICQHLNLSLGEAVFKLSRLRIADNEPLMVEDTYLPVKFFLSLTDQLLRSKPLYDLFSEDFKQTVRLADEELYASIASKEDAKLLMIPEGAPVLHLARQTYNMKNEIIEFTLSVARADQFHYQIRHIRNS", "soluble on expression in E. coli": "soluble"}, {"sequence": "GLNPPSAFSGAALACLEKMQASGVEEKCIHIFLIQHALVRKGETGYIPEKSISPVESLPFLQGIETKGENTALLRQAVVLKLNGGLGTGMGLNGPKSLLQVKNGQTFLDFTALQLEHFRQVRNCNVPFMLMNSFSTSGETKNFLRKYPTLYEVFDSDIELMQNRVPKIRQDNFFPVTYEADPTCEWVPPGHGDVYTVLYSSGKLDYLLGKGYRYMFISNGDNLGATLDVRLLDYMHEKQLGFLMEVCRRTESDKKGGHLAYKDVIDETTGQTRRRFVLRESAQCPKEDEDSFQNIAKHCFFNTNNIWINLMELKKMMDEQLGVLRLPVMRNPKTVNPQDSQSTKVYQLEVAMGAAISLFDRSEAVVVPRERFAPVKTCSDLLALRSDAYQVTEDQRLVLCEERNGKPPAIDLDGEHYKMIDGFEKLVKGGVPSLRQCTSLTVRGLVEFGADVSVRGNVVIKNLKEEPLIIGSGRVLDNEVVVVE", "soluble on expression in E. coli": "soluble"}, {"sequence": "GLPRHSAVMERLRRRIELCRRHHSTCEARYEAVSPERLELERQHTFALHQRCIQAKAKRAGKH", "soluble on expression in E. coli": "soluble"}, {"sequence": "GLVAPGYKMATVAVDHLLGNTESKFEGADMSAKLKLLGVKVGSIGDANGRTEGCKSYVYQNEEQEVYKRLIVSEDNKKLLGAVLVGDTSDYGDLLQLMLNEIDLPEHPDALILPAHAGAEKPALGADALPESAVICSCFDVTKGKIAQAVADGHHTLGDIK", "soluble on expression in E. coli": "not soluble"}, {"sequence": "GMAQAQTQGQEEEQKKKILIVVTHGPEDLDRTYAPLFMASISASMEYETSVFFMIKGPKLLDKKWQEEERKKGGNPFIHFFDMAKENGVKMYVCVQSLKDMCHMKEDDVVEGIELVGGSTLIDLTLEADRTLFF", "soluble on expression in E. coli": "soluble"}, {"sequence": "GMATEKYHEILKKYFLSFETGDFSQVQFSCNLEFLSPISGNTLKGTEEVIPFLKGVTTRVAEVNIMSTTVEYPRASGVWQMRTTKGTLYTLHNFFRLDEEGIVYVWPMFDPKAVMENPDALIQWLTGKDY", "soluble on expression in E. coli": "soluble"}, {"sequence": "GMDIMLNTADISAAAILLPVEGAQLSELRQIPAEGGPVLHMLRLDSPQFSQFGEIYFSEVLPRRVKAWKRHSLMTQLFAVPVGCIHVVLYDGREKSPTSGRLAQVTLGRPDNYRLLRIPPQVWYGFAATGDTPALVANCTDIPHRQGESERAPQDAPFIPFSWAGADLSGTPVM", "soluble on expression in E. coli": "soluble"}, {"sequence": "GMDVFSEYLAGIADPFHRERTEEVLTWIKNKYPNLHTEIKWNQPMFTDHGTFIIGFSVSKKHLAVAPEKVTIAHVEDDIVKAGYDYTEQLIRIPWNGPVDYTLLEKMIEFNILDKADCSTFWRK", "soluble on expression in E. coli": "soluble"}, {"sequence": "GMEPIMRNPEDALLDSWHQNAQAWIDAVRHGAIESRRQVTDQAILLAILGRQPERVLDLGCGEGWLLRALADRGIEAVGVDGDRTLVDAARAAGAGEVHLASYAQLAEAKVPVGKDYDLICANFALLHQDIIELLSAMRTLLVPGGALVIQTLHPWSVADGDYQDGWREESFAGFAGDWQPMPWYFRTLASWLNALDMAGLRLVSLQEPQHPQSAVPQSLLMVAERH", "soluble on expression in E. coli": "soluble"}, {"sequence": "GMHFSKEHINALETRTRAHFINSLSGFKSANLIGTQDRQGNTNLSIVSSVIHLGANPPLMGMIIRPHSVPRHTFENIMQTGLYTINHVNQSIYEQAHQTSARYDKDESEFEATGLTPEYLSDFCAPFVKESRLKYSVKLVEHQHLAINGTEFVIGEIVDVYVDDNAVQTDGFIDLQAIDTVAISGLDCYYTGDKLARLPYAKK", "soluble on expression in E. coli": "soluble"}, {"sequence": "GMNKEVDLSVSCLGKVKELKYDVIILPWGATEPHNLHLPYLTDCILPHDIAVEAAELALSRSGVRCMVMPPVPFGAHNPGQRELPFCIHTRYATQQAILEDIVSSLHVQGFRKLLILSGHGGNNFKGMIRDLAFEYPDFLIAAANWFEVVSPKGYFEAEIDDHAGESETSVMMHYHPELVNLAEAGDGESKPFAIASLNEKVAWVPRHWDKATVDSGVGNPKKATAEKGERYVKPIVEKLAGLFEEMAQHDLYE", "soluble on expression in E. coli": "soluble"}]}]}
